In the test the target is T1, TMF/ARA160 (endogenous protein of C2C12, NIH3T3 and T127 cells) (UniProt B9EKI3 1-1091).
T1 construct: Endogenous protein, immunoprecipitated from whole cell extracts or stained in fixed cells; also called Gate-Keeper; GK
T1 sequence (looked up): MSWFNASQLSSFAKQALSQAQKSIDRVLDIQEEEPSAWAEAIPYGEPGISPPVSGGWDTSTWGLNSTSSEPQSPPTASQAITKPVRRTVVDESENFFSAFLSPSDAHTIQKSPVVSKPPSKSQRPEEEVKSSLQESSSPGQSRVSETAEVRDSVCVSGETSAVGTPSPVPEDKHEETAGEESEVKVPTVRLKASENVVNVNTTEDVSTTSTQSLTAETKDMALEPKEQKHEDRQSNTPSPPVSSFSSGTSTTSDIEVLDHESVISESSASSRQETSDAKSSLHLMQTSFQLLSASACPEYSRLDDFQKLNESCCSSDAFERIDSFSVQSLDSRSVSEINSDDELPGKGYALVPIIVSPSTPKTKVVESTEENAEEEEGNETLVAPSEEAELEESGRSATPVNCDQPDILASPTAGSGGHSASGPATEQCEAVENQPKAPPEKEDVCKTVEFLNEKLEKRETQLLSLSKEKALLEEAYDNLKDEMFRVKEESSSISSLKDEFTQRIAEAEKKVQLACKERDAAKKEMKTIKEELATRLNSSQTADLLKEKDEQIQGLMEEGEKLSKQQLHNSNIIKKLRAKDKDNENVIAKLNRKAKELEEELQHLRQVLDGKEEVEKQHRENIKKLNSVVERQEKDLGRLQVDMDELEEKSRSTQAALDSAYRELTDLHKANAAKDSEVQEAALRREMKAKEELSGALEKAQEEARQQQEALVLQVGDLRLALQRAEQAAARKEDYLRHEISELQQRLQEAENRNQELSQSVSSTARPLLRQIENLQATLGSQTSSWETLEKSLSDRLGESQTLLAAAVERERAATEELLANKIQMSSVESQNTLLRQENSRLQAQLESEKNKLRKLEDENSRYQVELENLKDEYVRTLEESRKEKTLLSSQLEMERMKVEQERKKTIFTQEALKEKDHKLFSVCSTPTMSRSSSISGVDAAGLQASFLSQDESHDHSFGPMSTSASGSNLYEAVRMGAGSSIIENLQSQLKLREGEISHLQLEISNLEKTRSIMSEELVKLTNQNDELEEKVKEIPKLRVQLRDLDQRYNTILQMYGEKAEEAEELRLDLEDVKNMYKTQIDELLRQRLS
The experiment in a line: co-immunoprecipitation with αTMF/ARA160 from C2C12 extracts, Western blot with αStat1. From the text: FIG. 6 is an immunoprecipitation showing that TMF/ARA160 associates with cyclin D1 and Stat3 but not with Stat1, in serum starved C2C12 cells. […] Whole cell extracts from actively growing (lanes 1 and 5) or serum-starved cells (lanes 2-4 and 6-8) which were either untreated (lanes 1-4) or treated with MG132 (lanes 5-8), were resolved by 7% SDS-PAGE and exposed to αStat3 (upper panel); αcyclin D1 (middle panel); or αStat1 antibodies (lower panel), in a Western-blot analysis. […] TMF/ARA160 was immunoprecipitated from the extracts described in A. Precipitates were resolved by 7% SDS-PAGE and were reacted with αStat3 (upper panel); αStat1 (middle panel); or αcyclin D1 antibodies (lower panel), in a Western-blot analysis.

The results in this text go back to patent US20050063973A1 (URIFER, published 2005).

B1: Stat1 (endogenous protein of C2C12 cells) (other, UniProt P42225 2-749, looked up)
chain: SQWFELQQLDSKFLEQVHQLYDDSFPMEIRQYLAQWLEKQDWEHAAYDVSFATIRFHDLLSQLDDQYSRFSLENNFLLQHNIRKSKRNLQDNFQEDPVQMSMIIYNCLKEERKILENAQRFNQAQEGNIQNTVMLDKQKELDSKVRNVKDQVMCIEQEIKTLEELQDEYDFKCKTSQNREGEANGVAKSDQKQEQLLLHKMFLMLDNKRKEIIHKIRELLNSIELTQNTLINDELVEWKRRQQSACIGGPPNACLDQLQTWFTIVAETLQQIRQQLKKLEELEQKFTYEPDPITKNKQVLSDRTFLLFQQLIQSSFVVERQPCMPTHPQRPLVLKTGVQFTVKSRLLVKLQESNLLTKVKCHFDKDVNEKNTVKGFRKFNILGTHTKVMNMEESTNGSLAAELRHLQLKEQKNAGNRTNEGPLIVTEELHSLSFETQLCQPGLVIDLETTSLPVVVISNVSQLPSGWASILWYNMLVTEPRNLSFFLNPPCAWWSQLSEVLSWQFSSVTKRGLNADQLSMLGEKLLGPNAGPDGLIPWTRFCKENINDKNFSFWPWIDTILELIKNDLLCLWNDGCIMGFISKERERALLKDQQPGTFLLRFSESSREGAITFTWVERSQNGGEPDFHAVEPYTKKELSAVTFPDIIRNYKVMAAENIPENPLKYLYPNIDKDHAFGKYYSRPKEAPEPMELDDPKRTGYIKTELISVSEVHPSRLQTTDNLLPMSPEEFDEMSRIVGPEFDSMMSTV
Take B1: the binding result was “no binding”.
